Experiment [1] concerns the target Undamaged nucleosome core particle (Cy3-labeled human histone octamer on 191 bp Widom 601 DNA) (human) (UniProt P62807). The experiment in a line: single-molecule fluorescence with optical tweezers.
Experiment [2] has the same target. The experiment in a line: single-molecule fluorescence with optical tweezers. The source holds these as a separate data set.

Our source for the lifetime and Kd values is publication PMC12796238.

Like-named read-outs stand apart in the source and are kept apart here.

Chain of YFP-PARP1 (poly(ADP-ribose) polymerase 1, wild type) (P09874 whole entry): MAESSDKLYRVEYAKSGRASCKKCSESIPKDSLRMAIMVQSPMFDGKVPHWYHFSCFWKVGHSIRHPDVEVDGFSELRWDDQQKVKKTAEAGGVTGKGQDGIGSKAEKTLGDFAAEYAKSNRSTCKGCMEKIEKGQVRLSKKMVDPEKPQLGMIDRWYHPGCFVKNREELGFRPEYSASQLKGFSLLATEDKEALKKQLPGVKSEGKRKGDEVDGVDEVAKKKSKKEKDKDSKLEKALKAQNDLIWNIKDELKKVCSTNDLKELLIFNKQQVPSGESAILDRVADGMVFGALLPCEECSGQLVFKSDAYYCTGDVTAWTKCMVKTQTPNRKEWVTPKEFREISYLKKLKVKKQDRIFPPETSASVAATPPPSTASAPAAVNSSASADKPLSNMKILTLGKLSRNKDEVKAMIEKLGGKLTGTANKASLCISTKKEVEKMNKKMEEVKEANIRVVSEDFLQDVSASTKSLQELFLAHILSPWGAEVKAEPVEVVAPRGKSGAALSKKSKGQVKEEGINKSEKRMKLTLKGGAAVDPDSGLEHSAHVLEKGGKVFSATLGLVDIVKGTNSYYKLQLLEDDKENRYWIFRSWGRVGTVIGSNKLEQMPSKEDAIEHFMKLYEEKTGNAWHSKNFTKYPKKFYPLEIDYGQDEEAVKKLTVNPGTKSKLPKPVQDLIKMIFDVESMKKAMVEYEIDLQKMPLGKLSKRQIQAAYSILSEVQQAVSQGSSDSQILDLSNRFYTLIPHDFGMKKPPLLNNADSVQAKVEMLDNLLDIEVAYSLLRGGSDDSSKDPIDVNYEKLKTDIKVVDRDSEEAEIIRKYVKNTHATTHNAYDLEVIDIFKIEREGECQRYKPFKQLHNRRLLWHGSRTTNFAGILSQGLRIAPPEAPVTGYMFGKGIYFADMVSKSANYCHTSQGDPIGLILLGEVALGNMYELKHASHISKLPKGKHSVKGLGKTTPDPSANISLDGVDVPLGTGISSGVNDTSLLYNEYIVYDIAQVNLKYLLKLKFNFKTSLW

The substance “HaloTag-PARP1 H862A/Y896A/E988A (catalytically dead PARP1) (from UniProt P09874 1-1014) (enzyme)” returned a lifetime in experiment [1] of 56 s.
As to “YFP-PARP1 (poly(ADP-ribose) polymerase 1, wild type) (from UniProt P09874 1-1014) (enzyme)”, the Kd (as a rule, the free concentration of one partner at which half of the binding sites on the other are occupied at equilibrium, for simple one-to-one binding) in experiment [2] came to 1 nM. Besides, in experiment [1], the Kd was determined as 10.2 nM and the lifetime stood at 2.5 s.
